According to the supplement of paper PMC11316812:
± gives the standard deviation of the averaged measurements.

Key:
[1] = system: MCF7; assay: percentage of EdU-negative (G0-arrested) nuclei per well, 72 h; higher = more G0 arrest; details: reference: sequence is the full UniProt precursor, the tested protein was the secreted form or ectodomain
[2] = system: hTERT-HMEC; assay: as above; details: reference: sequence is the full UniProt precursor, the tested protein was the secreted form or ectodomain
[3] = protein concentration 0.0225 µM
[4] = protein concentration 0.02625 µM
[5] = protein concentration 0.2625 µM
[6] = protein concentration 0.03125 µM
[7] = protein concentration 0.3125 µM
[8] = protein concentration 0.0185 µM
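Further: secreted proteins added to cultured cells, EdU pulse at the end, nuclei found by Hoechst imaging, EdU status from nuclear versus surrounding ring intensity ratio, PBS as neutral control.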

“MKMWLLVSHLVIISITTCLAEFTWYRRYGHGVSEEDKGFGPIFEEQPINTIYPEESLEGKVSLNCRARASPFPVYKWRMNNGDVDLTSDRYSMVGGNLVINNPDKQKDAGIYYCLASNNYGMVRSTEATLSFGYLDPFPPEERPEVRVKEGKGMVLLCDPPYHFPDDLSYRWLLNEFPVFITMDKRRFVSQTNGNLYIANVEASDKGNYSCFVSSPSITKSVFSKFIPLIPIPERTTKPYPADIVVQFKDVYALMGQNVTLECFALGNPVPDIRWRKVLEPMPSTAEISTSGAVLKIFNIQLEDEGIYECEAENIRGKDKHQARIYVQAFPEWVEHINDTEVDIGSDLYWPCVATGKPIPTIRWLKNGYAYHKGELRLYDVTFENAGMYQCIAENTYGAIYANAELKILALAPTFEMNPMKKKILAAKGGRVIIECKPKAAPKPKFSWSKGTEWLVNSSRILIWEDGSLEINNITRNDGGIYTCFAENNRGKANSTGTLVITDPTRIILAPINADITVGENATMQCAASFDPALDLTFVWSFNGYVIDFNKENIHYQRNFMLDSNGELLIRNAQLKHAGRYTCTAQTIVDNSSASADLVVRGPPGPPGGLRIEDIRATSVALTWSRGSDNHSPISKYTIQTKTILSDDWKDAKTDPPIIEGNMEAARAVDLIPWMEYEFRVVATNTLGRGEPSIPSNRIKTDGAAPNVAPSDVGGGGGRNRELTITWAPLSREYHYGNNFGYIVAFKPFDGEEWKKVTVTNPDTGRYVHKDETMSPSTAFQVKVKAFNNKGDGPYSLVAVINSAQDAPSEAPTEVGVKVLSSSEISVHWEHVLEKIVESYQIRYWAAHDKEEAANRVQVTSQEYSARLENLLPDTQYFIEVGACNSAGCGPPSDMIEAFTKKAPPSQPPRIISSVRSGSRYIITWDHVVALSNESTVTGYKVLYRPDGQHDGKLYSTHKHSIEVPIPRDGEYVVEVRAHSDGGDGVVSQVKISGAPTLSPSLLGLLLPAFGILVYLEF” was tested, and the “percentage of EdU-negative” value [1, 3] was 24.5 ± 1.2%, the “percentage of EdU-negative” value ([1]; protein concentration 0.225 µM) was 26.2 ± 0.55% and the “percentage of EdU-negative” value [2, 3] was 5.11 ± 0.28%. The “percentage of EdU-negative” value ([2]; protein concentration 0.225 µM) was 5.87 ± 0.46%.
With “MLRRRGSPGMGVHVGAALGALWFCLTGALEVQVPEDPVVALVGTDATLCCSFSPEPGFSLAQLNLIWQLTDTKQLVHSFAEGQDQGSAYANRTALFPDLLAQGNASLRLQRVRVADEGSFTCFVSIRDFGSAAVSLQVAAPYSKPSMTLEPNKDLRPGDTVTITCSSYQGYPEAEVFWQDGQGVPLTGNVTTSQMANEQGLFDVHSILRVVLGANGTYSCLVRNPVLQQDAHSSVTITPQRSPTGAVEVQVPEDPVVALVGTDATLRCSFSPEPGFSLAQLNLIWQLTDTKQLVHSFTEGRDQGSAYANRTALFPDLLAQGNASLRLQRVRVADEGSFTCFVSIRDFGSAAVSLQVAAPYSKPSMTLEPNKDLRPGDTVTITCSSYRGYPEAEVFWQDGQGVPLTGNVTTSQMANEQGLFDVHSVLRVVLGANGTYSCLVRNPVLQQDAHGSVTITGQPMTFPPEALWVTVGLSVCLIALLVALAFVCWRKIKQSCEEENAGAEDQDGEGEGSKTALQPLKHSDSKEDDGQEIA [Q5ZPR3]” the “percentage of EdU-negative” value ([1]; protein concentration 0.019 µM) was 24.4 ± 2.3%, the “percentage of EdU-negative” value ([1]; protein concentration 0.19 µM) was 27.33 ± 0.26% and the “percentage of EdU-negative” value ([2]; protein concentration 0.019 µM) was 5.89 ± 0.34%. The “percentage of EdU-negative” value ([2]; protein concentration 0.19 µM) was 9.74 ± 0.48%.
In the case of “MAAAASPAILPRLAILPYLLFDWSGTGRADAHSLWYNFTIIHLPRHGQQWCEVQSQVDQKNFLSYDCGSDKVLSMGHLEEQLYATDAWGKQLEMLREVGQRLRLELADTELEDFTPSGPLTLQVRMSCECEADGYIRGSWQFSFDGRKFLLFDSNNRKWTVVHAGARRMKEKWEKDSGLTTFFKMVSMRDCKSWLRDFLMHRKKRLEPTAPPTMAPGLAQPKAIATTLSPWSFLIILCFILPGI [Q9BZM4]”, the “percentage of EdU-negative” value [1, 4] is reported as 25.38 ± 0.21%, the “percentage of EdU-negative” value [1, 5] is reported as 27.9 ± 1.3% and the “percentage of EdU-negative” value [2, 4] is reported as 5.34 ± 0.19%. The “percentage of EdU-negative” value [2, 5] was 4.8 ± 0.37%.
In the case of “MRPTLLWSLLLLLGVFAAAAAAPPDPLSQLPAPQHPKIRLYNAEQVLSWEPVALSNSTRPVVYQVQFKYTDSKWFTADIMSIGVNCTQITATECDFTAASPSAGFPMDFNVTLRLRAELGALHSAWVTMPWFQHYRNVTVGPPENIEVTPGEGSLIIRFSSPFDIADTSTAFFCYYVHYWEKGGIQQVKGPFRSNSISLDNLKPSRVYCLQVQAQLLWNKSNIFRVGHLSNISCYETMADASTELQQVILISVGTFSLLSVLAGACFFLVLKYRGLIKYWFHTPPSIPLQIEEYLKDPTQPILEALDKDSSPKDDVWDSVSIISFPEKEQEDVLQTL”, the “percentage of EdU-negative” value [1, 6] is reported as 27.1 ± 3%, the “percentage of EdU-negative” value [1, 7] is reported as 24.6 ± 0.62% and the “percentage of EdU-negative” value [2, 6] is reported as 5.59 ± 1.2%. For the same sequence, the “percentage of EdU-negative” value [2, 7] was 6.09 ± 0.44%.
“MIPAKDMAKVMIVMLAICFLTKSDGKSVKKRSVSEIQLMHNLGKHLNSMERVEWLRKKLQDVHNFVALGAPLAPRDAGSQRPRKKEDNVLVESHEKSLGEADKADVNVLTKAKSQ” was tested, and the “percentage of EdU-negative” value [1, 6] was 25.8 ± 0.95%, the “percentage of EdU-negative” value [1, 7] was 25 ± 0.47% and the “percentage of EdU-negative” value [2, 6] was 4.88 ± 0.23%. For the same sequence, the “percentage of EdU-negative” value [2, 7] was 6.37 ± 2%.
“MDPRLPAWALVLLGPALVFALGPAPTPEMREKLCGHHFVRALVRVCGGPRWSTEARRPATGGDRELLQWLERRHLLHGLVADSNLTLGPGLQPLPQTSHHHRHHRAAATNPARYCCLSGCTQQDLLTLCPY” was tested, and the “percentage of EdU-negative” value [1, 3] was 27 ± 2.5%, the “percentage of EdU-negative” value ([1]; protein concentration 0.225 µM) was 26.9 ± 2.5% and the “percentage of EdU-negative” value [2, 3] was 6.04 ± 0.67%. The “percentage of EdU-negative” value ([2]; protein concentration 0.225 µM) was 5.1 ± 0.54%.
“MAALLLGAVLLVAQPQLVPSRPAELGQQELLRKAGTLQDDVRDGVAPNGSAQQLPQTIIIGVRKGGTRALLEMLSLHPDVAAAENEVHFFDWEEHYSHGLGWYLSQMPFSWPHQLTVEKTPAYFTSPKVPERVYSMNPSIRLLLILRDPSERVLSDYTQVFYNHMQKHKPYPSIEEFLVRDGRLNVDYKALNRSLYHVHMQNWLRFFPLRHIHIVDGDRLIRDPFPEIQKVERFLKLSPQINASNFYFNKTKGFYCLRDSGRDRCLHESKGRAHPQVDPKLLNKLHEYFHEPNKKFFELVGRTFDWH” was tested, and the “percentage of EdU-negative” value [1, 8] was 21.85 ± 0.18%, the “percentage of EdU-negative” value ([1]; protein concentration 0.185 µM) was 26.7 ± 1.6% and the “percentage of EdU-negative” value [2, 8] was 4.41 ± 0.35%. The “percentage of EdU-negative” value ([2]; protein concentration 0.185 µM) was 11.85 ± 0.08%.
